Test results published in publication PMC5430663, “Distant Phe345 mutation compromises the stability and activity of Mycobacterium tuberculosis isocitrate lyase by modulating its structural flexibility” (Scientific Reports, 2017).

B1: Mycobacterium tuberculosis isocitrate lyase (MtbICL) (enzyme)
chain: MSVVGTPKSAEQIQQEWDTNPRWKDVTRTYSAEDVVALQGSVVEEHTLARRGAEVLWEQLHDLEWVNALGALTGNMAVQQVRAGLKAIYLSGWQVAGDANLSGHTYPDQSLYPANSVPQVVRRINNALQRADQIAKIEGDTSVENWLAPIVADGEAGFGGALNVYELQKALIAAGVAGSHWEDQLASEKKCGHLGGKVLIPTQQHIRTLTSARLAADVADVPTVVIARTDAEAATLITSDVDERDQPFITGERTREGFYRTKNGIEPCIARAKAYAPFADLIWMETGTPDLEAARQFSEAVKAEYPDQMLAYNCSPSFNWKKHLDDATIAKFQKELAAMGFKFQFITLAGFHALNYSMFDLAYGYAQNQMSAYVELQEREFAAEERGYTATKHQREVGAGYFDRIATTVDPNSSTTALTGSTEEGQFH
notes: Isocitrate lyase of Mycobacterium tuberculosis, full-length, 428 amino acids per monomer; also called native MtbICL; native protein
B2: MtbICL F345A mutant (MtbICL_(F345A)) (enzyme)
chain: MSVVGTPKSAEQIQQEWDTNPRWKDVTRTYSAEDVVALQGSVVEEHTLARRGAEVLWEQLHDLEWVNALGALTGNMAVQQVRAGLKAIYLSGWQVAGDANLSGHTYPDQSLYPANSVPQVVRRINNALQRADQIAKIEGDTSVENWLAPIVADGEAGFGGALNVYELQKALIAAGVAGSHWEDQLASEKKCGHLGGKVLIPTQQHIRTLTSARLAADVADVPTVVIARTDAEAATLITSDVDERDQPFITGERTREGFYRTKNGIEPCIARAKAYAPFADLIWMETGTPDLEAARQFSEAVKAEYPDQMLAYNCSPSFNWKKHLDDATIAKFQKELAAMGFKFQAITLAGFHALNYSMFDLAYGYAQNQMSAYVELQEREFAAEERGYTATKHQREVGAGYFDRIATTVDPNSSTTALTGSTEEGQFH
notes: A small fraction formed aggregate on SEC; also called mutant protein

Molecular target: the molecule itself
Assay: SEC; Superdex 200 10/300 GL on AKTA-FPLC, 50 mM phosphate buffer pH 8.0, 100 mM NaCl, 0.5 mL/min, 25 °C; mass read against standard markers (ferritin, catalase, aldolase, ovalbumin)

Protein	stoichiometry N
B1	4
B2	4
